Assay [1] has as its target Ang2 with A449 mutated with alanine, tagged with FLAG (human) (UniProt O15123). In words: ELISA, scFv coated, 250 ng FLAG-tagged Ang2 mutant, anti-FLAG-HRP.
Assay [2] deals with T1, human Ang2 polypeptide (R&D systems; Accession #O15123; SEQ ID NO: 172) (human, UniProt O15123 19-496).
T1 construct: Bought protein; also called hAng2; human Ang2 protein
T1 sequence: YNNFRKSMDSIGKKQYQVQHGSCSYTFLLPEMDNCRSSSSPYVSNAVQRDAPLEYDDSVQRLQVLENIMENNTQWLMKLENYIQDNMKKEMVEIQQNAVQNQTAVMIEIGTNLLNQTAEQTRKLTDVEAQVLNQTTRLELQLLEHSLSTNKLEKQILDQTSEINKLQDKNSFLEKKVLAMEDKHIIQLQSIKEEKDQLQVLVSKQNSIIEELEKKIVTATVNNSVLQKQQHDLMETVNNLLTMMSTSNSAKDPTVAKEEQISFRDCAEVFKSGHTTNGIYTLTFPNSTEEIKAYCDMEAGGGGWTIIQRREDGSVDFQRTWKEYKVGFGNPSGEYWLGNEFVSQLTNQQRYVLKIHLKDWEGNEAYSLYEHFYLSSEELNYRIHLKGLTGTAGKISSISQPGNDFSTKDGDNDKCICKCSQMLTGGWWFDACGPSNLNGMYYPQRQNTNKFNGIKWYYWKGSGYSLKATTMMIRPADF
Kind of assay: ELISA, antigen coated, scFv, anti-HA-HRP; 50% binding concentration (Kd). On the procedure:
(§1) To measure binding of the antibodies prepared above with each antigen, ELISA was performed. A 96-well MaxiSorp™ flat-bottom plate (Nunc) was coated with 5˜20 μg/ml of human Ang2 and mouse Ang2 (Accession # NP_{—}031452) (both, R&D Systems). After that, the plate was washed five times with 0.05% (v/v) Tween-20-containing PBS and then blocked with 1% (v/v) BSA-containing PBS at a room temperature for 2 hours. The anti-Ang2 antibodies in their scFv forms prepared above were added to each well of the plate which was then allowed to react at a room temperature for 2 hours.
(§2) Thereafter, the plate was washed five times with 0.05% Tween-20-containing PBS and then, an HRP-conjugated anti-HA (HA-probe Antibody (F-7) HRP conjugated) antibody (Santacruz) diluted in 1% (v/v) BSA-containing PBS at 1:1,000 ratio (v/v) was added in the amount of 50 μl to each well to react at a room temperature for 1 hour, followed by washing five times with 0.1% (v/v) Tween-20-containing PBS. Finally, 100 μl of TMB substrate (cell signal) was added to each well of the plate to induce color development at a room temperature for 3 min and then, the reaction was ceased by the addition of 50 μl of 5N H₂SO₄ solution and OD450 values were measured on a plate reader (Molecular Devices).

In assay [3] the target is T2, mouse Ang2 (Accession # NP-031452) (R&D Systems) (mouse, UniProt O35608 19-496, limits assumed).
T2 construct: Bought protein; also called mAng2
T2 sequence (looked up): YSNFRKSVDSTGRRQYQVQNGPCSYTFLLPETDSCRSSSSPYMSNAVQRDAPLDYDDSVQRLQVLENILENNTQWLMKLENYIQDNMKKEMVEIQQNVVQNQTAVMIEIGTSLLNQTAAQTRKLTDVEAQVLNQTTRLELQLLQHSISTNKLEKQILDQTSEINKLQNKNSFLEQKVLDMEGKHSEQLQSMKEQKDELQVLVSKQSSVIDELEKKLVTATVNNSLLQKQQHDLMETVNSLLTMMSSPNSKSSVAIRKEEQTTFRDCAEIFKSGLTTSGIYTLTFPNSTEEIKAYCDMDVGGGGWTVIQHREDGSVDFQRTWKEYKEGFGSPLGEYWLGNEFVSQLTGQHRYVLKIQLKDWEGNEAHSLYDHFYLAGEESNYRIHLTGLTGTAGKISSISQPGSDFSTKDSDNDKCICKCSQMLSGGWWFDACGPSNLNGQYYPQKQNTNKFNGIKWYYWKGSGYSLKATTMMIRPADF
The assay is described as above. How it is done:
as §1, §2

For the next assay, the target named is T3, FLAG-Tagged hAng2 (human, UniProt O15123 19-496, limits assumed).
T3 construct: also called FLAG-Ang2; non-mutated Ang2
T3 sequence: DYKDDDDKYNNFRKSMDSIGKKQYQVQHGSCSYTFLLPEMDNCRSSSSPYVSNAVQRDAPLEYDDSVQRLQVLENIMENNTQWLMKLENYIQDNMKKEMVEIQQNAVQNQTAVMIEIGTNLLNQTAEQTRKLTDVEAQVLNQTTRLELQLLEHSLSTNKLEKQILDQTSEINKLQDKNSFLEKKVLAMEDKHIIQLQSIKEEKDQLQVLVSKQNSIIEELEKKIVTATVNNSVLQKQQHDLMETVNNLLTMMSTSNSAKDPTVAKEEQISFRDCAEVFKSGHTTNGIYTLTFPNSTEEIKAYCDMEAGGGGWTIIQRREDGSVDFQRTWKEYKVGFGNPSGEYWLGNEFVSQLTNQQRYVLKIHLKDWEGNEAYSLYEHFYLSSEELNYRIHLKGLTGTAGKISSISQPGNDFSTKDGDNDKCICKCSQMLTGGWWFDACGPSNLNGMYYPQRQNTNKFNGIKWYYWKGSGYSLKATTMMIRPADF
Kind of assay: competitive ELISA: hTie2-Fc coated, 400 ng/ml FLAG-hAng2 plus scFv, anti-FLAG-HRP. On the procedure: To verify molecular interaction of the bound assemblies, a competitive ELISA was performed. A 96-well MaxiSorp™ flat-bottom plate (Nunc) was coated with […] of hTie2-Fc (R&D Systems), which is a protein with the Fc of human IgG1 bound thereto. After that, the plate was washed five times with 0.05% (v/v) Tween-20-containing PBS (Phosphate Buffer Saline) and then blocked with 1% (v/v) BSA (Bovine serum albumin; Sigma)-containing PBS at a room temperature for 2 hours.
Thereafter, the plate was washed five times with 0.05% Tween-20-containing PBS and then, an HRP-conjugated anti-FLAG antibody (SIGMA) diluted in 1% (v/v) BSA-containing PBS at 1:5,000 ratio (v/v) was added in the amount of 100 μl (microliter) to each well to react at a room temperature for 1 hour, followed by washing five times with 0.1% (v/v) Tween-20-containing PBS. Finally, 100 μl (microliter) of TMB substrate (cell signal) was added to each well of the plate to induce color development at a room temperature for 3 min. Then, the reaction was ceased by the addition of 50 μl of 5N H₂SO₄ solution and OD450 values were measured on a plate reader (Molecular Devices).

Numbering of substitutions follows the chain as printed.

B1: SAIT-ANG-2-AB-2-E6 (scFv form) (scFv, V domains shown)
VH: EVQLLESGGGLVQTGGSLRLSCAASGFTFSDYAMSWVRQAPGKGLEWVSAIYPDSGNKYYADSVKGRFTISRDNSKNTLYLQMNSLRAEDTAVYYCARHSSDPKVKSGYYDDGMDVWGQGTLVAVSS
VL: QSVLTQPPSASGTPGQRVTISCSGSSSNIGNNAVNWYQQLPGTAPKLLIYADSNRPSGVPDRFSGSKSGTSASLAISGLRSEDEADYYCGSWDYSLSGYVFGGGTKLTVLG
notes: scFv from a phage display library, partly purified from E. coli periplasm on Ni-NTA and detected with anti-HA
B1 gave a Relative binding (%) with Mutant Ang2 compared to the binding with native Ang2 in assay [1] of 3.3%. Further, the Kd in assay [2] worked out at 9.3 nM; in assay [3], 5.1 nM. Besides, the IC50 with FLAG-Tagged hAng2 is 18.9 nM.

B2: SAIT-ANG-2-AB-8-A5 (scFv form) (scFv, V domains shown)
VH: EVQLLESGGGLVQPGGSLRLSCAASGFTFSDYYMSWVRQAPGKGLEWVSGIYPSGGSTYYADSVKGRFTISRDNSKNTLYLQMNSLRAEDTAVYYCARDPSTLTYAGFDYWGQGTLVTVSS
VL: B1 VL with A33Y, N35T, N54H, G90A, S91T
notes: scFv from a phage display library
For the molecule B2, the Kd in assay [2] amounted to 5.3 nM; in assay [3], 11.7 nM. In addition, in the assay with FLAG-Tagged hAng2, the IC50 was 36.3 nM.

B3: SAIT-ANG-2-AB-4-C11 (scFv form) (scFv, V domains shown)
VH: EVQLLESGGGLVQPGGSLRLSCAASGFTFSDYAMSWVRQAPGKGLEWVSSIYPDDGNTYYADSVKGRFTISRDNSKNTLYLQMNSLRAEDTAVYYCARHTSHHTSIDGYYYYGMDGWGQGTLVTVSS
VL: B1 VL with S23T, A33D, N35S, A51S, N54K
notes: as for B2
Take B3: the Relative binding (%) with Mutant Ang2 compared to the binding with native Ang2 in assay [1] was 4.8%. Besides, the Kd is 4.9 nM in assay [2] and 28.6 nM in assay [3]. For the same molecule, the IC50 with FLAG-Tagged hAng2 came to 6.5 nM.

B4: SAIT-ANG-2-AB-3-D3 (scFv form) (scFv, V domains shown)
VH: EVQLLESGGGLVQPGGSLRLSCAASGFTFSDYDMSWVRQAPGKGLEWVSGISSDDGNTYYADSVKGRFTISRDNSKNTLYLQMNSLRAEDTAVYYCARPTIDKYTLRGYYSYGMDVWGQGTLVTVSS
VL: B1 VL with S23T, N31S, A33Y, N35S, A51S, S53N, N54K, S91T, Y94D, S97N
notes: as for B2
In the case of B4, the Relative binding (%) with Mutant Ang2 compared to the binding with native Ang2 in assay [1] was determined as 101%. The Kd in assay [2] is 4.3 nM; in assay [3], 37.8 nM. Also, the IC50 with FLAG-Tagged hAng2 was 9.9 nM.

B5: SAIT-ANG-2-AB-4-F11 (scFv form) (scFv, V domains shown)
VH: EVQLLESGGGLVQTGGSLRLSCAASGFTFSDYAMSWVRQAPGKGLEWVSSIYPDDGNTYYADSVKGRFTISRDNSKNTLYLQMNSLRAEDTAVYYCAKHPVRLNLHPMYYYYGMDVWGQGTLVTVSS
VL: B1 VL with S23T, N35S, A51S, N54Q, G90A, S91T, G98A
notes: as for B2
B5: in assay [1], the Relative binding (%) with Mutant Ang2 compared to the binding with native Ang2 was 16.7%. Moreover, the Kd was determined as 3 nM in assay [2] and 20.7 nM in assay [3]. Moreover, the IC50 with FLAG-Tagged hAng2 is 6.6 nM.

B6: SAIT-ANG-2-AB-7-C9 (scFv form) (scFv, V domains shown)
VH: EVQLLESGGGLVQPGGSLRLSCAASGFTFSNYAMSWVRQAPGKGLEWVSAISSGGGNIYYADSVKGRFTISRDNSKNTLYLQMNSLRAEDTAVYYCAKSGIQPSPPSMSSAYAMDVWGQGTLVTVSS
VL: B1 VL with A33D, N35Y, D52N, N54H, S91T
notes: as for B2
Turning to B6, the Relative binding (%) with Mutant Ang2 compared to the binding with native Ang2 in assay [1] was 14.5%. Moreover, the figures for the Kd in assay [2] and in assay [3] were 3.8 nM and 8.7 nM, respectively. The 50% inhibitory concentration (IC50) in the assay with FLAG-Tagged hAng2 is 39.7 nM.

B7: SAIT-ANG-2-AB-4-F5 (scFv form) (scFv, V domains shown)
VH: EVQLLESGGGLVQPGGSLRLSCAASGFTFSDYDMSWVRQAPGKGLEWVSSISHGDSNKYYADSVKGRFTISRDNSKNTLYLQMNSLRAEDTAVYYCAKSSGIQESPPTYYYYGMDVWGQGTLVTVSS
VL: B1 VL with N31S
notes: as for B2
B7 registered a Relative binding (%) with Mutant Ang2 compared to the binding with native Ang2 in assay [1] of 14%. Besides, the figures for the equilibrium dissociation constant (Kd) in assay [2] and in assay [3] were 12.1 nM and 23.8 nM, respectively. Also, the IC50 with FLAG-Tagged hAng2 was 10 nM.
